These results are taken from US20220242939A1 (BIOARCTIC, published 2022).

Broadly, the IC50 is the concentration that gives 50% inhibition. A high value points to weaker potency in that assay.

Non-standard residues stand in square brackets, D forms with d. No end group written: not given here. Ahx = NCCCCCC(=O)O

Assay [1] concerns the target 6F4, monoclonal anti-L198 antibody. The assay can be described thus: inhibition ELISA: antigen in solution varied, antibody 6F4 at 0.05 µg/ml, plate coated with L198-BSA peptide. The protocol: (§1) 0.5 μg/ml solution of N-terminal neo-epitope peptide L198 (SEQ ID NO:52) conjugated to BSA was prepared by dilution in PBS. 50 μl/well were added to an ELISA half-area 96 well microtiter plate, the plate was sealed with adhesive sealer and incubated over night at 4° C. After discarding the solution, the plates were blocked with protein-free blocking solution (Pierce) (150 μl/well) at room temperature for 90 min with shaking (900 rpm). The blocked plate was washed four times with washing buffer containing 0.28 mM NaH₂PO₄, 2.5 mM Na₂HPO₄, 150 mM NaCl, 0.1% TWEEN®-20 and 0.0075% Kathon CG.
(§2) Serial dilutions of each synthetic ApoE peptide were prepared by 4-fold dilution starting from 10000 ng/ml in 96 well storage plates (30 μl final volume). Each recombinant antibody to be tested was added (30 μl) to the serial dilutions of each of the synthetic ApoE peptides at a final concentration of 0.05 μg/ml per well. Samples were pre-incubated for 45 min at room temperature with shaking (900 rpm).
(§3) The pre-incubated samples were transferred (50 μl/well) to the blocked ELISA plates, and plates were incubated for 10 min at room temperature without shaking. […] Alkaline phosphatase substrate (50 μl/well) was added to the plate and the optical density was read every 10 min at a wavelength of 405 nm for up to 120 min. The IC50 values were determined from a log inhibitor concentration response curve (FIG. 25).
(In general: In an ELISA, binding on a coated surface is turned into a signal by an enzyme label.)

Assay [2] has as its target 8B3, monoclonal anti-L198 antibody. The assay can be described thus: inhibition ELISA: antigen in solution varied, antibody 8B3 at 0.05 µg/ml, plate coated with L198-BSA peptide. The protocol:
as §1, §2, §3

In assay [3] the target is 12B1, monoclonal anti-L198 antibody. Put plainly: inhibition ELISA: antigen in solution varied, antibody 12B1 at 0.05 µg/ml, plate coated with L198-BSA peptide. The protocol: as §1, §2, §3
Assay [4] addresses 15F8, monoclonal anti-L198 antibody. Put plainly: inhibition ELISA: antigen in solution varied, antibody 15F8 at 0.05 µg/ml, plate coated with L198-BSA peptide. The protocol:
as §1, §2, §3

Assay [5] deals with 15H11, monoclonal anti-L198 antibody. Put plainly: inhibition ELISA: antigen in solution varied, antibody 15H11 at 0.05 µg/ml, plate coated with L198-BSA peptide. On the procedure:
as §1, §2, §3

The target of assay [6] is T1, 7B10, recombinant IgG2c antibody.
T1 construct: also called 7610
The assay can be described thus: inhibition ELISA; antibody at 0.05 ug/ml pre-incubated with the antigen in solution (3-fold dilutions from 1000 ng/ml), then on a plate coated with G200-BSA peptide; blank reduced OD 405 nm. On the procedure: (§4) […] of each synthetic ApoE peptide, recombinant C-terminal ApoE fragment G200-HIS and full-length ApoE4 were prepared by 4-fold dilution starting from 1000 ng/ml in 96 well storage plates (30 μl final volume). Each recombinant antibody to be tested was added (30 μl) to the serial dilutions of each of the synthetic ApoE peptides, G200-HIS or full-length ApoE4 at a final concentration of 0.05 μg/ml per well. Samples were pre-incubated for 45 min at room temperature with shaking (900 rpm).
(§5) The pre-incubated samples were transferred (50 μl/well) to the blocked ELISA plates, and plates were incubated for 25 min at room temperature without shaking. Plates were washed as described above. Alkaline phosphatase conjugated anti-mouse IgG detection antibody (Mabtech, cat. no. 3310-4) was diluted 1:1000 and added to each plate (50 μl/well). The plate was sealed and incubated with shaking (900 rpm) for 45 min at room temperature and subsequently washed as described above. Alkaline phosphatase substrate (50 μl/well) was added to the plate and the optical density was read every 15 min at a wavelength of 405 nm for up to 120 min. The IC50 values were determined from a log inhibitor concentration response curve (FIG. 17).

In assay [7] the target is 7C7, recombinant IgG2c antibody. The assay is described as above. On the procedure: as §4, §5
Assay [8] has as its target 17G4, recombinant IgG2c antibody. Described as above. The protocol: as §4, §5
Assay [9] addresses 23D5, recombinant IgG2c antibody. The description is as above. On the procedure: as §4, §5
In assay [10] the target is 28F2, recombinant IgG2c antibody. The assay is described as above. On the procedure:
as §4, §5

For assay [11], the target named is 36A12, monoclonal anti-A199 antibody. Put plainly: inhibition ELISA; antibody at 0.05 ug/ml pre-incubated with the peptide in solution (4-fold dilutions from 10000 ng/ml), then on a plate coated with A199-BSA peptide; blank reduced OD 405 nm. The protocol:
(§6) 0.5 μg/ml solution of N-terminal neo-epitope peptide A199 (SEQ ID NO:51) conjugated to BSA was prepared by dilution in PBS. 50 μl/well were added to an ELISA half-area 96 well microtiter plate, the plate was sealed with adhesive sealer and incubated over night at 4° C. After discarding the solution, the plates were blocked with protein-free blocking solution (Pierce) (150 μl/well) at room temperature for 90 min with shaking (900 rpm). The blocked plate was washed four times with washing buffer containing 0.28 mM NaH₂PO₄, 2.5 mM Na₂HPO₄, 150 mM NaCl, 0.1% TWEEN®-20 and 0.0075% Kathon CG.
(§7) Serial dilutions of each synthetic ApoE peptide were prepared by 4-fold dilution starting from 10000 ng/ml in 96 well storage plates (30 μl final volume). Each purified monoclonal antibody to be tested was added (30 μl) to the serial dilutions of each of the synthetic ApoE peptides at a final concentration of 0.05 μg/ml per well. Samples were pre-incubated for 45 min at room temperature with shaking (900 rpm).
as §5, with “10” for “25”, “10” for “15”, “29).” for “17).”

Assay [12] has as its target 38G9, monoclonal anti-A199 antibody. The assay is described as above. On the procedure: as §6, §7
as §5, with “10” for “25”, “10” for “15”, “29).” for “17).”

Assay [13] deals with 63F6, monoclonal anti-A199 antibody. The assay is described as above. The protocol: as §6, §7
as §5, with “10” for “25”, “10” for “15”, “29).” for “17).”

The target in assay [14] is 6F4, monoclonal anti-L198 antibody. Put plainly: inhibition ELISA; antibody at 0.05 ug/ml pre-incubated with the peptide in solution (4-fold dilutions from 10000 ng/ml), then on a plate coated with L198-BSA peptide; blank reduced OD 405 nm. On the procedure:
as §1, §2
as §5, with “10” for “25”, “10” for “15”, “25).” for “17).”

Assay [15] addresses T1, 7B10, recombinant IgG2c antibody. The assay can be described thus: inhibition ELISA, second protocol; antibody at 0.05 ug/ml pre-incubated with the peptide in solution (4-fold dilutions from 10000 ng/ml), then on a plate coated with G200-BSA peptide; blank reduced OD 405 nm. On the procedure:
as §4, §5
(§8) In addition, a second inhibition ELISA with the ApoE peptides conjugated to BSA was run, in which the starting concentration of the antigens in solution was increased 10-fold. i.e. the starting concentration of the N-terminal neo-epitope of synthetic ApoE peptides conjugated to BSA and starting at amino acid L198 (SEQ ID NO:52), A199 (SEQ ID NO:51) or G200 (SEQ ID NO:50), or to BSA-conjugated negative control peptide (SEQ ID NO:53), was 10000 ng/ml. Furthermore, a 4-fold serial dilution of antigen was used, the plates were blocked with protein-free blocking solution (Pierce) for 90 min, the pre-incubated samples were incubated on the coated plates for 10 min (instead of 25 min), and the optical density was read every 10 min (instead of every 15 min). IC50 values were determined from a log inhibitor concentration response curve (FIG. 20).

Assay [16] has as its target 7C7, recombinant IgG2c antibody. The description is as above. The protocol:
as §4, §5, §8

Assay [17] addresses 17G4, recombinant IgG2c antibody. Described as above. The protocol: as §4, §5, §8
Assay [18] addresses 23D5, recombinant IgG2c antibody. Described as above. On the procedure: as §4, §5, §8
In assay [19] the target is 28F2, recombinant IgG2c antibody. The description is as above. On the procedure:
as §4, §5, §8

6F4, monoclonal anti-L198 antibody, sequence (VH, as listed by the source, chain 1 of 2): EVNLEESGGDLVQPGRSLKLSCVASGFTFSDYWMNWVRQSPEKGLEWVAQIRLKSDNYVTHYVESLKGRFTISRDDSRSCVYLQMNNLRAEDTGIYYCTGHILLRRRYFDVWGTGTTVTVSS
6F4, monoclonal anti-L198 antibody, sequence (VL, as listed by the source, chain 2 of 2): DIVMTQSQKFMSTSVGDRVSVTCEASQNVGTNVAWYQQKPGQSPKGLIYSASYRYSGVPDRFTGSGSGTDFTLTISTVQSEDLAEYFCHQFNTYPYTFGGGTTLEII
28F2, recombinant IgG2c antibody, sequence (VH, as listed by the source, chain 1 of 2): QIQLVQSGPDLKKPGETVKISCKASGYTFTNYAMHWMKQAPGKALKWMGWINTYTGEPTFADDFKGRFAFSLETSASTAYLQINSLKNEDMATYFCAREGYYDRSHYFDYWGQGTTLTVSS
28F2, recombinant IgG2c antibody, sequence (VL, as listed by the source, chain 2 of 2): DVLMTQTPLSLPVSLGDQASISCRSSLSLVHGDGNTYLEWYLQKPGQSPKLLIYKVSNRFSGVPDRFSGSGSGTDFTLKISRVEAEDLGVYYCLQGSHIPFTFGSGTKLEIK
T1 sequence (VH, as listed by the source, chain 1 of 2): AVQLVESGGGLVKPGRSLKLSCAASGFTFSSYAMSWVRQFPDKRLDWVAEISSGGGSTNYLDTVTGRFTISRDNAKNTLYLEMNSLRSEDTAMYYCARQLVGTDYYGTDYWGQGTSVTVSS
T1 sequence (VL, as listed by the source, chain 2 of 2): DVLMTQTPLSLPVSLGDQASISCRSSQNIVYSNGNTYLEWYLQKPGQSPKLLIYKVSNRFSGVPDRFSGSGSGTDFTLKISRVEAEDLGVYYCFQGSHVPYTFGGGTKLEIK
7C7, recombinant IgG2c antibody, sequence (VH, as listed by the source, chain 1 of 2): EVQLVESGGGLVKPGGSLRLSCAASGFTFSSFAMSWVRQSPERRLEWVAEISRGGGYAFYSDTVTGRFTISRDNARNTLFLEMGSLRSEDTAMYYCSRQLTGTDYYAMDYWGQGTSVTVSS
7C7, recombinant IgG2c antibody, sequence (VL, as listed by the source, chain 2 of 2): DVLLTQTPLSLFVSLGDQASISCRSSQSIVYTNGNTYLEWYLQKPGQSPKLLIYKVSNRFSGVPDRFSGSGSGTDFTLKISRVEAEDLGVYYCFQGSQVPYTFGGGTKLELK
38G9, monoclonal anti-A199 antibody, sequence (VH, as listed by the source, chain 1 of 2): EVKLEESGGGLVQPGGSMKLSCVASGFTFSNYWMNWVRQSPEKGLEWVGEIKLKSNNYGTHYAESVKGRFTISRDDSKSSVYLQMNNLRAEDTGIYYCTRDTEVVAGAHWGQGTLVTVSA
38G9, monoclonal anti-A199 antibody, sequence (VL, as listed by the source, chain 2 of 2): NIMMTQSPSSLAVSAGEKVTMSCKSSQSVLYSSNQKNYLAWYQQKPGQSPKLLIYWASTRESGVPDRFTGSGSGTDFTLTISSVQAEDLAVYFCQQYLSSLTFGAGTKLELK
36A12, monoclonal anti-A199 antibody, sequence (VH, as listed by the source, chain 1 of 2): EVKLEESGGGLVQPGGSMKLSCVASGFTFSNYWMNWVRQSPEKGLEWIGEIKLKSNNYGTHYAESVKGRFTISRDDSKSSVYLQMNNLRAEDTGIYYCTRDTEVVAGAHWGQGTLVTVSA
36A12, monoclonal anti-A199 antibody, sequence (VL, as listed by the source, chain 2 of 2): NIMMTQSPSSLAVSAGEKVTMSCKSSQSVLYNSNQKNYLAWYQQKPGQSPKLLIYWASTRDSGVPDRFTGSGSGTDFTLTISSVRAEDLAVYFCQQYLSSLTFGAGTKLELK
23D5, recombinant IgG2c antibody, sequence (VH, as listed by the source, chain 1 of 2): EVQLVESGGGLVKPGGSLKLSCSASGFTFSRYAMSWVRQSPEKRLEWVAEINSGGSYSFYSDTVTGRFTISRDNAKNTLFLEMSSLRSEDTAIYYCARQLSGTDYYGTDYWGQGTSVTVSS
23D5, recombinant IgG2c antibody, sequence (VL, as listed by the source, chain 2 of 2): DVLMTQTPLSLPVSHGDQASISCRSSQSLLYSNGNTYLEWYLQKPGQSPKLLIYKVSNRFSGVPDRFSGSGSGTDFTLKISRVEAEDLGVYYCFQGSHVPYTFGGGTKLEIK
17G4, recombinant IgG2c antibody, sequence (VH, as listed by the source, chain 1 of 2): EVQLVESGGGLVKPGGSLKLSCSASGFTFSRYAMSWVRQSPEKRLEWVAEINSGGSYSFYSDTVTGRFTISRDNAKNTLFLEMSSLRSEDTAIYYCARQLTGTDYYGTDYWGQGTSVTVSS
15H11, monoclonal anti-L198 antibody, sequence (VH, as listed by the source, chain 1 of 2): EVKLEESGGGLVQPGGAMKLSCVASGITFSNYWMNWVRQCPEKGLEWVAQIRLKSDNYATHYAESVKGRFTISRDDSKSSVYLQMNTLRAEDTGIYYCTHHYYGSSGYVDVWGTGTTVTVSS
15H11, monoclonal anti-L198 antibody, sequence (VL, as listed by the source, chain 2 of 2): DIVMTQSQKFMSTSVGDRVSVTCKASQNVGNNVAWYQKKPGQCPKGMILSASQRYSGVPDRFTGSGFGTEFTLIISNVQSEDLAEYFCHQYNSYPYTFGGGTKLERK
8B3, monoclonal anti-L198 antibody, sequence (VH, as listed by the source, chain 1 of 2): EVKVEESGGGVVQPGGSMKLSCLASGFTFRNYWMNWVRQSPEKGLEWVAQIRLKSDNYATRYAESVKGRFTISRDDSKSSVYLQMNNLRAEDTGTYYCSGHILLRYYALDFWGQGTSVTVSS
8B3, monoclonal anti-L198 antibody, sequence (VL, as listed by the source, chain 2 of 2): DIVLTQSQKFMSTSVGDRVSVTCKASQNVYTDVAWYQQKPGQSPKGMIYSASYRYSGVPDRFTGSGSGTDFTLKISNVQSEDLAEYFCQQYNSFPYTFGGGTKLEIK
15F8, monoclonal anti-L198 antibody, sequence (VH, as listed by the source, chain 1 of 2): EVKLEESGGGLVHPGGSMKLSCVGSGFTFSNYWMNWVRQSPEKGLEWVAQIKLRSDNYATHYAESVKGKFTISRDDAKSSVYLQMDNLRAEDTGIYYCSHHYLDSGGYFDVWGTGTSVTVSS
15F8, monoclonal anti-L198 antibody, sequence (VL, as listed by the source, chain 2 of 2): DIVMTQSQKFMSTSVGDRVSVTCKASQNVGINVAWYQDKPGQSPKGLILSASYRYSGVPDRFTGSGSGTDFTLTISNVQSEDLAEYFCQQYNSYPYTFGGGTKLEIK
63F6, monoclonal anti-A199 antibody, sequence (VH, as listed by the source, chain 1 of 2): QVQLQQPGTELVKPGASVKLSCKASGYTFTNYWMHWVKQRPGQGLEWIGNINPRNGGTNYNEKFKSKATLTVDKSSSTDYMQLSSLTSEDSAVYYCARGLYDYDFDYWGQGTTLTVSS
63F6, monoclonal anti-A199 antibody, sequence (VL, as listed by the source, chain 2 of 2): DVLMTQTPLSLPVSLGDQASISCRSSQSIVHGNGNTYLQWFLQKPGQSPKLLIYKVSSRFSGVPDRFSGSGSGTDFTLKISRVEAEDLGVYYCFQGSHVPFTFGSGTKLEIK
12B1, monoclonal anti-L198 antibody, sequence (VH, as listed by the source, chain 1 of 2): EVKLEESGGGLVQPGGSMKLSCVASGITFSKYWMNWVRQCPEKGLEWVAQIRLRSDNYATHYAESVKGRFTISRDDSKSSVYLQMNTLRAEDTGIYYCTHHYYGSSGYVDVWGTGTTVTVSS
12B1, monoclonal anti-L198 antibody, sequence (VL, as listed by the source, chain 2 of 2): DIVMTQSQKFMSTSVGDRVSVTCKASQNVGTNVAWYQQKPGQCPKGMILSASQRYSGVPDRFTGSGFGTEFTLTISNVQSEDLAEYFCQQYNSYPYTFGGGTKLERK

B1: L198 N-terminal neo-epitope peptide LAGQPL-Acp-C (SEQ ID NO:52) conjugated to BSA (peptide)
peptide: LAGQPL[Ahx]C
modifications: not fully specified (residue 8); printed as LAGQPL-Acp-C; also: C-terminal Cys conjugated to BSA carrier
notes: BSA carrier; also called L198-BSA peptide
Take B1: the IC50 in [1] is 8.2 ng/mL; in assay [2] it was 3.1 ng/mL; in [3] it was 4.8 ng/mL; in assay [4], 6.5 ng/mL; in assay [5], 4.5 ng/mL. For the same molecule, the binding result in assay [6] is “no binding (tested: 1000 ng/ml)”; in [7], “no binding (tested: 1000 ng/ml)”; in assay [8], “no binding (tested: 1000 ng/ml)”; in [9], “no binding (tested: 1000 ng/ml)”; in assay [10] it was “no binding (tested: 1000 ng/ml)”; in assay [11] it was “no binding (tested: 10000 ng/ml)”. In addition, the binding result in assay [12] and in [13] was “no binding (tested: 10000 ng/ml)” in each case.

B2: negative control peptide AATVGSLAGQPLQER-Acp-C (SEQ ID NO:53) conjugated to BSA (peptide)
peptide: AATVGSLAGQPLQER[Ahx]C
modifications: not fully specified (residue 17); printed as AATVGSLAGQPLQER-Acp-C; also: C-terminal Cys conjugated to BSA carrier
notes: BSA carrier; also called 192-206 BSA-conjugated peptide
Regarding B2, the binding result in assay [14], in assay [11], in assay [12], in assay [15], in assay [16] and in [17] was “no binding (tested: 10000 ng/ml)” each time. The binding result in assay [18] and in [19] was “no binding (tested: 10000 ng/ml)” in each case.
